Assay results taken from patent US20230012428A1 (JIANGSU HENGRUI MEDICINE, published 2023).
Substitutions are numbered along the chain they refer to. Names may count otherwise. Where two headings read alike, the source gives them in different places. Values belong to the binder of their own block, whether it stands above or below them.

Legend:
[1] = molecular target: T1, PD-L1-Fc (prepared in-house) (human, UniProt Q9NZQ7 19-238, limits assumed); assay: blocking ELISA, PD-L1-Fc coated, competitor biotin-labeled PD-1
T1 construct: Prepared in-house; also called human PD-L1-Fc; not shown: Fc

[2] = molecular target: T2, Human CD47-his (CD47-ECD-His) (human, UniProt Q08722 19-139, limits assumed); assay: ELISA, CD47-his coated on plate
T2 construct: also called hCD47; free human CD47 protein

Cyno CD47-his [3] = molecular target: T3, Cyno CD47-his (cyno, UniProt A0A2K5X523 19-139); assay: ELISA, CD47-his coated on plate
T3 construct: extracellular domain; not shown: His tag

Cyno PD-L1-His [4] = molecular target: T4, Cyno PD-L1-His (cyno, UniProt G7PSE7 19-239); assay: SPR (Biacore T200), binder captured on Protein A chip, antigen in flow
T4 construct: Bought; not shown: His tag

mPD-L1 [5] = molecular target: T5, mPD-L1 (mouse, UniProt Q9EP73 19-238); assay: as above
T5 construct: Bought; also called Mouse PD-L1-his; Mouse PD-L1

hPD-L1-His [6] = molecular target: T6, hPD-L1-His (human, UniProt Q9NZQ7 19-239); assay: as above
T6 construct: Bought; also called Human PD-L1-his; Human PD-L1; not shown: His tag

[7] = molecular target: T2, Human CD47-his (CD47-ECD-His); assay: as above
Cyno CD47-his [8] = molecular target: T3, Cyno CD47-his; assay: as above
[9] = molecular target: T1, PD-L1-Fc (prepared in-house); assay: blocking ELISA, PD-L1-Fc coated, competitor biotin-labeled B7-1
Cyno PD-L1-His [10] = molecular target: T4, Cyno PD-L1-His; assay: ELISA, PD-L1-his coated on plate
hPD-L1-His [11] = molecular target: T6, hPD-L1-His; assay: ELISA, PD-L1-his coated on plate
[12] = molecular target: T2, Human CD47-his (CD47-ECD-His); assay: ELISA, CD47-his coated on plate; remark: listed apart in the source
Cyno CD47-his [13] = molecular target: T3, Cyno CD47-his; assay: ELISA, CD47-his coated on plate; remark: listed apart in the source
[14] = molecular target: T7, CD47 extracellular domain and human IgG1Fc fusion protein (CD47-ECD-Fc) (human); assay: blocking ELISA, CD47-Fc coated, competitor biotin-labeled SIRPα-his
T7 construct: also called CD47-Fc

[15] = molecular target: T8, natural CD47 on the surface of human red blood cells (human, UniProt Q08722 19-323); assay: flow cytometry on human red blood cells, 10 µg/ml, Alexa 488 goat anti-human IgG secondary antibody, geometric mean
T8 construct: whole, on cells; also called CD47 on the surface of red blood cells

mPD-L1 [16] = molecular target: T5, mPD-L1; assay: ELISA, PD-L1-his coated on plate

IC50 [1]: 0.122 µg/mL
EC50 [2]: 0.0469 µg/mL
EC50 (Cyno CD47-his [3]): 0.06 µg/mL
Kd (Cyno PD-L1-His [4]): 89.1 pM
binding result (mPD-L1 [5]): no binding
Kd (hPD-L1-His [6]): 82.5 pM
Kd [7]: 1770 pM
Kd (Cyno CD47-his [8]): 1940 pM
IC50 [9]: 0.16 µg/mL
EC50 (Cyno PD-L1-His [10]): 0.237 µg/mL
EC50 (hPD-L1-His [11]): 0.0947 µg/mL
B1: h1831-19-S58 (bispecific antibody, human IgG4 S228P, kappa)
heavy: not shown
light: DIVLTQSPASLAVSPGQRATITCRASESVSIHGTHLMHWYQQKPGQPPKLLIYAASNLESGVPARFSGSGSGTDFTLTINPVEAEDTANYYCQQSFEDPLTFGQGTKLEIKRTVAAPSVFIFPPSDEQLKSGTASVVCLLNNFYPREAKVQWKVDNALQSGNSQESVTEQDSKDSTYSLSSTLTLSKADYEKHKVYACEVTHQGLSSPVTKSFNRGEC
notes: Anti-PD-L1 IgG4 antibody h1831 with SIRPγ variant S58, GS19 linker; also called PD-L1-CD47 bifunctional fusion protein

IC50 [1]: 0.0723 µg/mL
Kd (Cyno PD-L1-His [4]): 121 pM
binding result (mPD-L1 [5]): no binding
Kd (hPD-L1-His [6]): 87.4 pM
Kd [7]: 3830 pM
Kd (Cyno CD47-his [8]): 4630 pM
IC50 [9]: 0.113 µg/mL
EC50 (Cyno PD-L1-His [10]): 0.214 µg/mL
EC50 (hPD-L1-His [11]): 0.0976 µg/mL
B2: h1831-19-S79 (bispecific antibody, human IgG4 S228P, kappa)
heavy: not shown
light: B1 light
notes: h1831 IgG4 with SIRPγ variant S79, GS19 linker; also called PD-L1-CD47 bifunctional fusion protein

Kd (Cyno PD-L1-His [4]): 47.1 pM
binding result (mPD-L1 [5]): no binding
Kd (hPD-L1-His [6]): 52.9 pM
Kd [7]: 1160 pM
Kd (Cyno CD47-his [8]): 1390 pM
B3: h1831-19-S37 (bispecific antibody, human IgG4 S228P, kappa)
heavy: not shown
light: B1 light
notes: h1831 IgG4 with SIRPγ variant S37, GS19 linker; also called PD-L1-CD47 bifunctional fusion protein

EC50 [12]: 0.0609 µg/mL
EC50 (Cyno CD47-his [13]): 0.033 µg/mL
Kd (Cyno PD-L1-His [4]): 49.3 pM
binding result (mPD-L1 [5]): no binding
Kd (hPD-L1-His [6]): 56.3 pM
Kd [7]: 1250 pM
Kd (Cyno CD47-his [8]): 1480 pM
IC50 [14]: 0.252 µg/mL
EC50 (Cyno PD-L1-His [10]): 0.0972 µg/mL
EC50 (hPD-L1-His [11]): 0.046 µg/mL
B4: h1831K-19-S37 (bispecific antibody, human IgG4 S228P, kappa)
heavy: not shown
light: B1 light with N57K
notes: h1831K IgG4 (h1831 with light chain N53K) with SIRPγ variant S37, GS19 linker; also called h831K-19-S37; PD-L1-CD47 bifunctional fusion protein

IC50 [14]: 0.263 µg/mL
B5: Anti-CD47 antibody hu5F9 (antibody, human IgG4 S228P, kappa, V domains shown)
VH: QVQLVQSGAEVKKPGASVKVSCKASGYTFTNYNMHWVRQAPGQRLEWMGTIYPGNDDTSYNQKFKDRVTITADTSASTAYMELSSLRSEDTAVYYCARGGYRAMDYWGQGTLVTVSS
VL: DIVMTQSPLSLPVTPGEPASISCRSSQSIVYSNGNTYLGWYLQKPGQSPQLLIYKVSNRFSGVPDRFSGSGSGTDFTLKISRVEAEDVGVYYCFQGSHVPYTFGQGTKLEIKR
notes: Control antibody

IC50 [1]: 0.0266 µg/mL
binding result [15]: no binding (tested: 10 µg/ml)
Kd (Cyno PD-L1-His [4]): 91.9 pM
binding result (mPD-L1 [5]): no binding
Kd (hPD-L1-His [6]): 80.6 pM
IC50 [9]: 0.0494 µg/mL
EC50 (Cyno PD-L1-His [10]): 0.222 µg/mL
EC50 (hPD-L1-His [11]): 0.129 µg/mL
B6: PD-L1 antibody h1831 (antibody, human IgG4 S228P, kappa, V domains shown)
VH: QVQLVQSGAEVKKPGASVKVSCKASGYTFTSYWMHWVRQAPGQGLEWMGRITPSSGFAMYNEKFKNRVTMTRDTSTSTVYMELSSLRSEDTAVYYCARGGSSYDYFDYWGQGTTVTVSS
VL: DIVLTQSPASLAVSPGQRATITCRASESVSIHGTHLMHWYQQKPGQPPKLLIYAASNLESGVPARFSGSGSGTDFTLTINPVEAEDTANYYCQQSFEDPLTFGQGTKLEIKR

IC50 [1]: 0.032 µg/mL
Kd (Cyno PD-L1-His [4]): 151 pM
Kd (hPD-L1-His [6]): 144 pM
IC50 [9]: 0.0307 µg/mL
EC50 (Cyno PD-L1-His [10]): 0.196 µg/mL
EC50 (hPD-L1-His [11]): 0.163 µg/mL
B7: HRP00052 (antibody, V domains shown)
VH: B6 VH with T52G, S54N, A58T, M59S
VL: B6 VL

EC50 [2]: 0.0703 µg/mL
EC50 (Cyno CD47-his [3]): 0.0317 µg/mL
Kd [7]: 653 pM
Kd (Cyno CD47-his [8]): 1090 pM
B8: Anti-CD47 antibody Hu167-IgG4 AA (antibody, V domains shown)
VH: QVQLVQSGAEVKKPGASVKVSCKASGYTFTSYWMHWVRQAPGQGLEWMGNIDPSDSETHYNQKFKDRVTMTRDTSISTAYMELSRLRSDDTAVYYCARWGYLGRSAMDYWGQGTTVTVSS
VL: DVQITQSPSSLSASVGDRVTITCRTSKSISKFLAWYQQKPGKAPKLLIYSGSTLQSGVPSRFSGSGSGTDFTLTISSLQPEDFATYYCQQHNEYPWTFGGGTKVEIKR
notes: Control antibody, prepared according to WO2018095428A1; also called Hul67 IgG4AA

IC50 [1]: 0.035 µg/mL
binding result [15]: no binding (tested: 10 µg/ml)
Kd (Cyno PD-L1-His [4]): 498 pM
Kd (mPD-L1 [5]): 97500 pM
Kd (hPD-L1-His [6]): 466 pM
IC50 [9]: 0.0752 µg/mL
EC50 (Cyno PD-L1-His [10]): 0.23 µg/mL
EC50 (mPD-L1 [16]): 0.0289 µg/mL
EC50 (hPD-L1-His [11]): 0.131 µg/mL
B9: Anti PD-L1 IgG4 antibody h1830 (antibody, V domains shown)
VH: QVQLQESGPGLVKPSQTLSLTCTVSGGSISDGSAYWSWIRQHPGKGLEYIGFISRAGSTYNTPSLKGRVTISRDTSKNQFSLKLSSVTAADTAVYYCARSGGWLAPFDYWGRGTLVTVSS
VL: DIVMTQSPDSLAVSLGERATINCKSSQSLFYHSNQKHSLAWYQQKPGQPPKLLIYGASTRESGVPDRFSGSGSGTDFTLTISSLQAEDVAVYYCQQYYGYPYTFGGGTKVEIKR
notes: also called PD-L1 monoclonal antibody h1830
